This assay addresses GFRα1 receptor/IgG Fc fusion. Kind of assay: double sandwich ELISA, GFRα1/IgG Fc captured on plate. (In general: An ELISA detects its analyte on a solid surface through an enzyme-linked reagent.)

A word on the Kd: it is the constant that tells how readily two partners part at equilibrium. Consider “An2-Rig-hGDNF (N-terminal Angiopep-2 fused to hGDNF^78-211 through a rigid (PAPAP) linker) (from UniProt P39905 78-211)”, for which the Bmax came to 0.202 A405/min and the dissociation constant Kd was found to be 0.82 nM.

In the case of “hGDNF-An2 (C-terminal Angiopep-2 fused to hGDNF^78-211) (from UniProt P39905 78-211)”, the Bmax worked out at 0.155 A405/min and the Kd worked out at 0.53 nM.

As for “An2-Hel-hGDNF (N-terminal Angiopep-2 fused to hGDNF^78-211 through a helical (A(EAAAK)2A) linker) (from UniProt P39905 78-211)”, the Bmax was 0.142 A405/min and the Kd was 0.27 nM.

In turn, “An2-Flex-hGDNF (N-terminal Angiopep-2 fused to hGDNF^78-211 through a flexible ((GGGGS)2) linker) (from UniProt P39905 78-211)” came in with a Bmax of 0.161 A405/min and a Kd of 0.16 nM.

As to “An2-hGDNF (N-terminal Angiopep-2 fused to hGDNF^78-211) (from UniProt P39905 78-211)”, the Bmax was 0.146 A405/min and the Kd came out at 0.68 nM.

In the case of “GDNF (hGDNF^78-211) (from UniProt P39905 78-211) (ligand)”, the Bmax was 0.155 A405/min and the dissociation constant (Kd) stood at 0.24 nM.

Substance “An2NT-hGDNF (N-terminal reversed sequence Angiopep-2 fused to hGDNF^78-211) (from UniProt P39905 78-211)” returned a Bmax of 0.161 A405/min and a Kd of 0.31 nM.

(Values after patent publication US20120196803A1.)
